Test results taken from the supplement of paper PMC10567573.

B1: HESX1 (parent)
chain: ENKPSTCSFSIERILGLDQKKDCV

Variants of: B1
Experiment: protein stability index of a GFP-peptide fusion (GPS, HEK-293T) (PSI 1-6); higher = more stable
Settings: c terminus: a fixed tail appended
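Further: lentivirally expressed fusions sorted by FACS into six bins by GFP to DsRed ratio, PSI derived from sequencing read proportions per bin multiplied by bin number.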

Variant | protein stability index
K20Q | 2.56
K20W | 1.62
K20T | 2.53
K20E | 3.08
K20D | 3.27
K20F | 2.22
K20N | 2.71
K20M | 2.67
K20L | 1.93
K20C | 2.52
K20V | 2.25
K20H | 2.47
K20Y | 1.97
K20S | 2.69
K20I | 2.13
K20A | 2.45
K20P | 2.75
K20R | 2.41
S10P | 4.28
S10W | 2.76
S10M | 2.48
S10G | 3.27
S10R | 2.71
S10I | 2.62

Variant | protein stability index
S10Q | 3.26
S10D | 4
S10E | 3.01
S10L | 3.05
S10C | 2.38
S10F | 2.84
S10V | 2.29
S10N | 3.27
S10H | 3.5
S10K | 3.77
S10T | 4.07
S10A | 2.86
S10Y | 2.8
S5Y | 2.54
S5H | 2.81
S5D | 3.16
S5I | 3.02
S5V | 2.5
S5G | 3.31
S5T | 3.42
S5W | 2.13
S5P | 3.48
S5Q | 2.89
S5E | 3.77

Variant | protein stability index
S5L | 2.18
S5R | 2.56
S5A | 2.94
S5N | 3.09
S5K | 2.85
S5M | 2.75
S5F | 1.96
S5C | 2.71
R13P | 4.41
R13N | 3.96
R13I | 1.82
R13K | 2.33
R13A | 3.18
R13W | 1.75
R13L | 2.27
R13H | 3.31
R13Y | 2.08
R13V | 2.12
R13F | 1.48
R13C | 2.6
R13T | 3.35
R13G | 3.78
R13M | 1.9
R13Q | 2.68

Variant | protein stability index
R13D | 3.9
R13E | 3.46
R13S | 3.24
E12V | 1.64
E12D | 3.8
E12F | 1.63
E12N | 3.44
E12H | 2.47
E12S | 2.84
E12Q | 2.57
E12K | 2.86
E12I | 1.61
E12W | 1.48
E12R | 2.46
E12T | 2.94
E12G | 3.65
E12M | 1.86
E12C | 2.45
E12L | 1.86
E12Y | 1.9
E12P | 2.94
D22L | 1.5
D22C | 2.12
D22G | 2.78

Variant | protein stability index
D22A | 2.51
D22I | 1.94
D22E | 3.24
D22M | 1.77
D22H | 2.04
D22F | 2.1
D22K | 2.73
L17T | 3.78
L17A | 4
L17Q | 3.59
L17K | 4.04
L17E | 4.25
L17D | 4.4
L17N | 4.42
L17V | 4.2
L17M | 2.11
L17P | 4.69
L17C | 3.22
L17F | 2.91
L17S | 3.86
L17W | 2.82
L17Y | 2.56
L17G | 3.83
L17H | 3.53

Variant | protein stability index
L17I | 3.31
S8M | 3.73
S8V | 3.1
S8W | 2.14
S8P | 4.2
S8G | 2.51
S8C | 4.28
S8E | 4.18
S8D | 3.88
S8N | 3.07
S8Y | 2.66
S8H | 2.7
S8R | 2.79
S8K | 2.94
S8I | 2.83
S8A | 3.46
S8T | 3.52
S8F | 3.04
S8L | 3.07
S8Q | 3.23
P4T | 3.67
P4V | 3.35
P4W | 2.54
P4Y | 1.94

Variant | protein stability index
C7R | 3.92
C7M | 3.32
C7K | 3.52
C7S | 3.98
C7D | 4.13
C7L | 2.94
C7I | 1.84
C7A | 3.58
C7H | 3.91
C7Q | 3.96
C7G | 3.87
C7P | 4.01
C7T | 3.74
C7N | 4.05
C7Y | 3.43
C7E | 4.23
C7W | 2.33
C7F | 3.11
C7V | 3.17
T6I | 2.9
T6D | 3.96
T6K | 2.41
T6V | 2.71
T6N | 3.06

Variant | protein stability index
T6L | 3.14
T6C | 2.43
T6P | 2.77
T6E | 3.39
T6F | 2.85
T6Y | 3.16
T6M | 2.37
T6R | 2
T6A | 3.46
T6W | 2.53
T6Q | 3.12
T6G | 3.5
T6S | 3.12
T6H | 3.24
F9S | 3.97
F9D | 4.24
F9C | 3.43
F9I | 3.43
F9T | 4.45
F9G | 4.43
F9R | 3.88
F9V | 4.09
F9K | 4.3
F9P | 5.09

Variant | protein stability index
F9L | 4.07
F9M | 2.79
F9W | 2.42
F9E | 4.41
F9A | 3.86
F9N | 4.2
F9Q | 4.3
F9H | 4.15
F9Y | 3.52
I14R | 3.97
I14D | 4.11
I14S | 4.52
I14M | 3.15
I14L | 3.11
I14H | 4.1
I14Y | 3.75
I14E | 4.88
I14G | 4.09
I14N | 3.83
I14V | 3.39
I14F | 3.8
I14C | 3.97
I14A | 4.54
I14Q | 4.12

Variant | protein stability index
I14W | 3.38
I14P | 4.34
I14K | 4.31
I14T | 4.16
I11L | 3.58
I11N | 4.63
I11P | 5.12
I11E | 5.05
I11T | 3.52
I11R | 4.73
I11M | 3.42
I11H | 3.7
I11C | 3.27
I11K | 4
I11Y | 3.13
I11A | 3.27
I11V | 2.91
I11D | 4.04
I11G | 3.13
I11W | 2.77
I11S | 4.21
I11F | 3.06
I11Q | 3.97
L15P | 3.44

Variant | protein stability index
L15W | 2.46
L15A | 3.14
L15H | 3.13
L15V | 4.16
L15K | 4.23
L15D | 4.06
L15C | 2.63
L15T | 4
L15N | 3.73
L15M | 2.12
L15F | 2.53
L15S | 3.5
L15E | 4.11
L15Q | 2.69
L15Y | 2.38
L15I | 2.96
L15G | 3.27
L15R | 3.61
G16P | 3.75
G16V | 3.15
G16Y | 2.28
G16E | 3.27
G16K | 2.9
G16D | 3.74

Variant | protein stability index
G16R | 2.23
G16C | 2.83
G16H | 2.83
G16S | 3.28
G16W | 2.32
G16L | 2.43
G16T | 3.69
G16N | 3.41
G16F | 2.49
G16Q | 3.76
G16I | 2.63
G16M | 2.92
G16A | 3.2
K21D | 3.16
K21V | 2.54
K21A | 2.41
K21L | 2.27
K21M | 2.05
K21I | 1.9
K21C | 2.11
K21S | 2.95
K21R | 2.62
K21G | 2.86
K21T | 3.19

Variant | protein stability index
K21N | 2.62
K21Y | 1.67
K21H | 2.35
K21Q | 2.93
K21P | 2.67
K21E | 3.4
K21W | 1.86
K21F | 2.35
D18K | 2.79
D18L | 2.12
D18M | 2.23
D18S | 3.13
D18H | 3
D18Q | 2.89
D18E | 3.4
D18Y | 2.14
D18G | 2.55
D18A | 2.94
D18I | 1.74
D18N | 2.62
D18W | 2.32
D18F | 1.85
D18T | 2.77
D18R | 2.76

Variant | protein stability index
D18P | 2.71
D18V | 1.8
D18C | 2.85
Q19C | 2.67
Q19E | 3.23
Q19G | 3.06
Q19V | 2.71
Q19Y | 1.97
Q19S | 2.79
Q19D | 3.34
Q19N | 2.64
Q19F | 2.12
Q19M | 2.6
Q19L | 2.62
Q19I | 2.39
Q19K | 2.94
Q19P | 3.14
Q19T | 2.88
Q19W | 1.35
Q19R | 3.2
Q19H | 2.47
Q19A | 2.33
